According to IntAct's records for PubMed 25789606:

B1: Ameloblastin (Homo sapiens), Q9NP70 (parent)
chain: MSASKIPLFKMKDLILILCLLEMSFAVPFFPQQSGTPGMASLSLETMRQLGSLQRLNTLSQYSRYGFGKSFNSLWMHGLLPPHSSLPWMRPREHETQQYEYSLPVHPPPLPSQPSLKPQQPGLKPFLQSAAATTNQATALKEALQPPIHLGHLPLQEGELPLVQQQVAPSDKPPKPELPGVDFADPQGPSLPGMDFPDPQGPSLPGLDFADPQGSTIFQIARLISHGPMPQNKQSPLYPGMLYVPFGANQLNAPARLGIMSSEEVAGGREDPMAYGAMFPGFGGMRPGFEGMPHNPAMGGDFTLEFDSPVAATKGPENEEGGAQGSPMPEANPDNLENPAFLTELEPAPHAGLLALPKDDIPGLPRSPSGKMKGLPSVTPAAADPLMTPELADVYRTYDADMTTSVDFQEEATMDTTMAPNSLQTSMPGNKAQEPEMMHDAWHFQEP

Variants of: B1
Conditions: with fa20c_human FAM20C

Row | effect of a mutation on the interaction | Variant
1 | with no effect | S41A
2 | with no effect | T36A
3 | with no effect | T46A
4 | with no effect | S34A
